Data on twelve molecules can be found in patent publication US20240382610A1 (TALLAC THERAPEUTICS, published 2024).

T1: Cyno nectin-4 ECD-6His (TNT-255) (cynomolgus, UniProt Q96NY8 32-349 (human entry))
T1 construct: entry includes the 6His tag
T1 chain: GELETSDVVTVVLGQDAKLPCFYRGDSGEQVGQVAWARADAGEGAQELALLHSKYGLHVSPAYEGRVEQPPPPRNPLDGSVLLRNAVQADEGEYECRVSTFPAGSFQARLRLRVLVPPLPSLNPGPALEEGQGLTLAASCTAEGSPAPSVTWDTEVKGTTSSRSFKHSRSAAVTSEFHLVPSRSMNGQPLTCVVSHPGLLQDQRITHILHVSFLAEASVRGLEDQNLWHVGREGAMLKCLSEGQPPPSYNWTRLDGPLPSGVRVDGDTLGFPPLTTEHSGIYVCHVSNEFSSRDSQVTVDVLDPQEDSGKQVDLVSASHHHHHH

T2: Mouse nectin-4 ECD-6His (TNT-250) (mouse, UniProt Q8R007 31-347)
T2 construct: entry includes the 6His tag; also called mouse nectin-4-LCD
T2 sequence: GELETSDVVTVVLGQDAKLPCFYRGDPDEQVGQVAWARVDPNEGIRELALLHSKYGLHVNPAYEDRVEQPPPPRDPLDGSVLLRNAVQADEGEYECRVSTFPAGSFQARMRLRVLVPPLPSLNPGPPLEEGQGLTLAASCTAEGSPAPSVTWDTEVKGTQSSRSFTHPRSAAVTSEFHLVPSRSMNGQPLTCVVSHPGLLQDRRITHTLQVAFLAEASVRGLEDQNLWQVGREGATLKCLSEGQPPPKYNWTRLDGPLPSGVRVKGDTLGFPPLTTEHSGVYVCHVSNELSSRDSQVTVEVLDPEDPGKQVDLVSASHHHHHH

T3: Human nectin-4 ECD-6His (TNT-175) (human, UniProt Q96NY8 32-349)
T3 construct: the entry holds the extracellular domain with the C-terminal 6His tag
T3 sequence: T1 chain with A39V, V230I

T4: Human nectin-4-IgV-6His (TNT-252) (human, UniProt Q96NY8 32-147)
T4 construct: entry includes the 6His tag
T4 sequence: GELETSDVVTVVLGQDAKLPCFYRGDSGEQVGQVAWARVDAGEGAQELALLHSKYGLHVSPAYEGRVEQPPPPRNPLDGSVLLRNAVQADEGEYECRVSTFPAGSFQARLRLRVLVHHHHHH

B1: TNT-320 (antibody, V domains shown)
VH: QVQLVQSGAEVKKPGASVKVSCKASGYTFTVYYIHWVRQAPGQGLEWMGWISPNSGGTNYAQKFQGRVTMTRDTSISTAYMELTRLRSDDTAIFYCARQTVVTPNWGFDYWGQGTLVTVSS
VL: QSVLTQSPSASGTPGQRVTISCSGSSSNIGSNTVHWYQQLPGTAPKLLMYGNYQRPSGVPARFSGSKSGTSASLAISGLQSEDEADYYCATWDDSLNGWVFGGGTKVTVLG
notes: human IgG1
B2: TNT-317 (antibody, V domains shown)
VH: QVQLQESGPGLVKPSETLSLTCTVSGGSISSYFWSWIRQPPGKGLEWIGYIYYSGNTNYNPSLKSRVTISVDMSKNQFSLRLSSVTAADTAVYYCARDFHHYDGSAYRWYFDLWGRGTLVTVSS
VL: QSVLTQPPSVSAAPGQKVTISCSGSSSNIGNNYVSWYQQFPGTAPKLLIYDNNKRPSGIPDRFSGSKSGTSATLGITGLQTGDEADYYCGTWDSSLNAGWVFGGGTKLTVLG
notes: human IgG1
B3: TNT-322 (antibody, V domains shown)
VH: QVQLQESGPGLVKPSATLSLTCTVSGGSISSYYWNWIRQPPGKGLEWIGYIYYSGNTNYNPSLKSRVTISVDMSKNQFSLKLNSVTAADTAVYYCARSESYGYWFFYLWGRGTLVTVSS
VL: B2 VL with N97S, W100V
notes: human IgG1
B4: TNT-318 (antibody, V domains shown)
VH: QVQLQESGPGLVKPSETLSLTCTVSGGSISSNYWTWIRQSAGKGLEWIGRIHISESTNYNPSLKSRVTMSVDTSKNQFSLKLSSVTAADTAVYFCAREGEWKVLGAFDIWGQGTMVTVSS
VL: QTVLTQPSSLSASPGASASLTCTLRSGINVGSYRIYWYQQKPGSPPQFLLRYKSDSDKQQGSGVPSRFSGSKDDSANAGILLISGLQSEDEADYYCMIWHSSASVFGTGTKVTVLG
notes: human IgG1
B5: TNT-323 (antibody, V domains shown)
VH: QVQLQESGPGLVKPSETLSLTCTVSGGSISSYFWNWIRQPPGKGLEWIGYLYYIGTTNYNPSLKSRVTISVDTSKNQFSLKLNSVTAADTAVYYCARSGNYYNDAFDIWGQGTMVTVSS
VL: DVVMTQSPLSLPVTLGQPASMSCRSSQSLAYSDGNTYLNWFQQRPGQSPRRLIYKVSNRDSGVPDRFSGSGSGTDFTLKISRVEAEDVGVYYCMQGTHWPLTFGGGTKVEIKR
notes: human IgG1
B6: TNT-324 (antibody, V domains shown)
VH: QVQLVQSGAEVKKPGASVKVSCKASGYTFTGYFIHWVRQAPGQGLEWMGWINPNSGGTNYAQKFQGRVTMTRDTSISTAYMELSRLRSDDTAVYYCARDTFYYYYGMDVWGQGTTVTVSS
VL: QTVVTQEPSLTVSPGGTVTLTCASSTGAVTSGYYPNWFQQKPGQAPRALIYSTSNKHSWTPARFSGSLLGGKAALTLSGVQPEDEAEYYCLLYYDGAHLFGGGTKLTVLG
notes: human IgG1
B7: TNT-328 (antibody, V domains shown)
VH: QVQLQESGPGLVKPSETLSLTCTVSGGSMSSYFWSWIRQPPERGLEWVGYMYYSGNTNYNPSLKSRVTTSIDTSKNQFSLKLTSVTAADTAVYYCARSGNFYWNFDLWGRGTLVTVSS
VL: QSVLTQPPSVSGAPGQRVTISCTGSSSNIGAGYNVHWYQQLPGTAPKVLISGNSNRPSGVPDRFSGSKSGTSASLAITGLQAEDEADYYCQSYDSSLSGSAVFGGGTKLTVLG
notes: human IgG1
B8: TNT-327 (antibody, V domains shown)
VH: QVQLQESGPGLVKPSETLSLTCTVSGGSISDYYWIWIRQPAGKGLEWIGRIYTTGGAKYNPSLKSRVTMSIDTSKNNFSLKLSSVTAADTAVYFCARDRNWEWNFDLWGRGTLVTVSS
VL: QSALTQPASVSGSPGQSITISCTGTTSDIGSYNLVSWYQQHPGKAPKLMIYEVSMSPSGVSDRFSGSKSGSTASLTISGLQAEDEADYYCSSYAGSSTVVFGGGTRLTVLG
notes: human IgG1
B9: TNT-321 (antibody, V domains shown)
VH: QVQLQESGPGLVKPSETLSLTCTVSGGSISSYYWSWIRQPPGKGLEWIGYIYYSGNVNYNPSLKSRVTISVDASKNQFSLKLTSVTAADTAVYYCAIGGVGAQWDAFDIWGQGTMVTVSS
VL: DIQMTQSPSAMSASVGDRVTITCRASQGISNYLAWFQQKPGKVPKRLIYAASSLQSGVPSRFSGSGSGTEFTLTISSLQPEDFATYYCLQHSFYPLTFGPGTKVDIKR
notes: human IgG1
B10: TNT-330 (antibody, V domains shown)
VH: EVQLVESGGGLVKPGGSLRLSCAVSGFTFSSYNMNWVRQAPGKGLEWVSSISISSSYIYYADSVKGRFTISRDNAKNSLYLQMNSLRAEDTAVYYCARDRGLDDAFDIWGQGTVVTVSS
VL: DIVMTQTPLSLPVTPGEPASISCRSSQSLLDSDDGNTYLDWYLQKPGQSPQLLIYTLSYRASGVPDRFSGSGSGTDFTLKVSRVEAEDVGVYYCMQRIEFPYTFGQGTKLEIKR
notes: human IgG1
B11: TNT-205 (antibody, human IgG1, kappa)
heavy: not shown
light: DIVMTQSPSSLSASVGDRVTITCRASQGISNYLAWYQQKPGKVPKLLIYAASTLQSGVPSRFSGSGSGTDFTLTISSLQPEDVATYYCQKYNSAPYTFGQGTKVEIKRTVAAPSVFIFPPSDEQLKSGTASVVCLLNNFYPREAKVQWKVDNALQSGNSQESVTEQDSKDSTYSLSSTLTLSKADYEKHKVYACEVTHQGLSSPVTKSFNRGEC
B12: TNT-211 (antibody, human IgG1, kappa)
heavy: not shown
light: B11 light with D70E, T74A, V83L, K90Q, Y91L, A94H, Y96I, K103R, V104L

Where a chain is given by its changes, count along the chain named.

The target of the first assay is T1, Cyno nectin-4 ECD-6His (TNT-255). Put plainly: SPR Biacore 8K, mAb on protein A. The method, then: (§1) The running buffer was 10 mM HEPES, pH 7.4, 150 mM NaCl, 3 mM EDTA, 0.05% (v/v) Surfactant P20 (HBS-EP+). […] The nectin-4 analytes were injected in either single-cycle kinetics or multi-cycle kinetics mode at nominal starting concentrations of 300 nM or 900 nM with 3-fold serial dilutions. Association times were monitored for 120 s, and dissociation times were monitored 1800 s at 30 μL/min flow rate. The surfaces were regenerated with 10 mM glycine at pH1.7 or 75 mM phosphoric acid at pH1.6 for two pulses of 15 s at 30 μL/min flow rate.
(§2) The data were processed and analyzed with Biacore 8K Evaluation Software Version 3.0.12.15655 (Cytiva, Global Life Sciences Solutions USA LLC, Marlborough, MA). […] The responses from the nearest buffer blank injection were then subtracted from the reference subtracted data (2-1) to yield double-referenced data. These double-reference data were fit to a simple 1:1 Langmuir binding model with mass transport to determine the apparent association (ka) and dissociation rate constants (kd). The apparent equilibrium dissociation constant or affinity constant was then calculated based on their ratio as (KD=kd/ka).
For orientation: SPR reads the build-up and loss of mass on a sensor chip optically.
The molecule B1 yielded a Kd of 0.0359 µM.

In turn, B2 came in with a dissociation constant Kd of 0.0183 µM.

As for B3, binding was characterised by a dissociation constant (Kd) of 0.0515 µM.

The molecule B4 displayed an equilibrium dissociation constant (Kd) of 0.211 µM.

In the case of B5, the Kd turned out to be 0.00867 µM.

Consider B6, for which the affinity, expressed as Kd, was 0.0244 µM.

Regarding B7, binding was characterised by a dissociation constant (Kd) of 0.00178 µM.

B8: binding was characterised by a dissociation constant (Kd) of 0.00285 µM.

Regarding B9, binding was characterised by a dissociation constant (Kd) of 0.056 µM.

As for B10, the equilibrium dissociation constant (Kd) came to 0.0137 µM.

Molecule B11 came in with a dissociation constant (Kd) of 0.727 µM.

B12 yielded an equilibrium dissociation constant (Kd) of 0.0489 µM.

The target of another assay is T2, Mouse nectin-4 ECD-6His (TNT-250). Put plainly: SPR Biacore 8K, mAb on protein A. On the procedure:
as §1, §2
On to B1, for which the binding result is reported as “no binding (tested: up to 300 or 900 nM analyte)”.

As to B2, the binding result is “no binding (tested: up to 300 or 900 nM analyte)”.

With B3, the binding result is listed as “no binding (tested: up to 300 or 900 nM analyte)”.

Turning to B4, the binding result is given as “no binding (tested: up to 300 or 900 nM analyte)”.

With B5, the binding result is given as “no binding (tested: up to 300 or 900 nM analyte)”.

Turning to B6, the binding result was “no binding (tested: up to 300 or 900 nM analyte)”.

Consider B7, for which the binding result is “no binding (tested: up to 300 or 900 nM analyte)”.

For B8, the binding result is “no binding (tested: up to 300 or 900 nM analyte)”.

With B9, the binding result is on record as “no binding (tested: up to 300 or 900 nM analyte)”.

Regarding B10, the binding result is recorded as “no binding (tested: up to 300 or 900 nM analyte)”.

The molecule B11 displayed a Kd of 0.82 µM.

Molecule B12 came in with a dissociation constant Kd of 0.0684 µM.

In a further assay the target is T3, Human nectin-4 ECD-6His (TNT-175). Put plainly: SPR Biacore 8K, mAb on protein A. The method, then: as §1, §2
In turn, B1 gave a Kd of 0.0184 µM.

In turn, B2 showed a dissociation constant Kd of 0.0157 µM.

On to B3, for which the Kd came out at 0.0579 µM.

Turning to B4, binding was put at a Kd of 0.26 µM.

The molecule B5 gave a dissociation constant (Kd) of 0.009 µM.

B6: binding was characterised by a dissociation constant (Kd) of 0.0645 µM.

As for B7, binding was characterised by a dissociation constant (Kd) of 0.00159 µM.

As to B8, the Kd is 0.00363 µM.

Regarding B9, binding was put at a Kd of 0.014 µM.

Turning to B10, binding was characterised by a dissociation constant (Kd) of 0.0164 µM.

The molecule B11 came in with a dissociation constant Kd of 0.0539 µM.

B12 yielded a Kd of 0.0243 µM.

A further assay has as its target T4, Human nectin-4-IgV-6His (TNT-252). Put plainly: SPR Biacore 8K, mAb on protein A. The method, then:
as §1, §2
B1: binding was characterised by a dissociation constant (Kd) of 0.00991 µM.

For B2, the binding result is on record as “no binding (tested: up to 300 or 900 nM analyte)”.

For B3, the binding result was “no binding (tested: up to 300 or 900 nM analyte)”.

Consider B4, for which the binding result is on record as “no binding (tested: up to 300 or 900 nM analyte)”.

For B5, the binding result was “no binding (tested: up to 300 or 900 nM analyte)”.

Molecule B6 showed a Kd of 0.0307 µM.

Consider B7, for which the binding result is on record as “no binding (tested: up to 300 or 900 nM analyte)”.

The molecule B8 returned an equilibrium dissociation constant (Kd) of 0.00164 µM.

B9 returned a Kd of 0.0116 µM.

As for B10, the affinity, expressed as Kd, was 0.0073 µM.

With B11, the dissociation constant (Kd) is 0.0753 µM.

Turning to B12, the affinity, expressed as Kd, was 0.0243 µM.

Broadly, the Kd is a measure of binding affinity in units of concentration. Read a low Kd as a tighter complex.
